Values quoted from earlier work, collected in patent US7713705B2, “Markers for differential diagnosis and methods of use thereof” (Biosite, Inc., priority 2002, dated 2010).
Like-named read-outs stand apart in the source and are kept apart here.

How the values were obtained:
[1] = in animals
[2] = plasma, in mice
[3] = bloodstream of rats

Molecule: Platelet factor 4 [PF4]
- biphasic half-life, first phase (plasma): 1 min
- extended half-life, second phase (plasma): 20 min
- half-life extended by the presence of heparin (plasma): 20 to 40 min
- biphasic half-life, first phase (serum): 1 min
- extended half-life, second phase (serum): 20 min
- half-life extended by the presence of heparin (serum): 20 to 40 min

Molecule: Platelet-derived growth factor [PDGF]
- biphasic half-life, first phase [1]: approximately 5 minutes
- biphasic half-life, second phase [1]: ~60 min

Molecule: CK-BB: brain-specific creatine kinase isoform, an 85 kDa cytosolic protein
- half-life (in vivo): 60 to 300 min

Molecule: Malondialdehyde-modified low-density lipoprotein [MDA-modified LDL]
- half-life [2]: less than 5 minutes

Molecule: S-100β: β subunit of S-100, a 21 kDa cytosolic Ca2+-binding protein; specific to the nervous system
- biological half-life (in vivo): 2 hours

Molecule: Tumor necrosis factor α [TNFα]
- half-life (bloodstream): approximately 1 hours

Molecule: Interleukin-6 [IL-6]
- half-life (bloodstream): 252 min

Molecule: thrombin-ATIII complex [TAT]
- half-life (bloodstream): approximately 5 minutes

Molecule: Prothrombin fragment 1+2 [F1+2]
- half-life (plasma): approximately 90 minutes

Molecule: Phosphoglyceric acid mutase [PGAM]
- half-life [3]: less than 2 hours

Molecule: C-reactive protein [CRP]
- half-life (bloodstream): approximately 19 hours

Molecule: Interleukin-1β [IL-1β]
- biphasic physiological half-life, first phase (in vivo): 5 minutes
- biphasic physiological half-life, second phase (in vivo): 4 hours

B1: neuron-specific enolase (protein, UniProt P09104 2-434, looked up)
Gamma-enolase: SIEKIWAREILDSRGNPTVEVDLYTAKGLFRAAVPSGASTGIYEALELRDGDKQRYLGKGVLKAVDHINSTIAPALISSGLSVVEQEKLDNLMLELDGTENKSKFGANAILGVSLAVCKAGAAERELPLYRHIAQLAGNSDLILPVPAFNVINGGSHAGNKLAMQEFMILPVGAESFRDAMRLGAEVYHTLKGVIKDKYGKDATNVGDEGGFAPNILENSEALELVKEAIDKAGYTEKIVIGMDVAASEFYRDGKYDLDFKSPTDPSRYITGDQLGALYQDFVRDYPVVSIEDPFDQDDWAAWSKFTANVGIQIVGDDLTVTNPKRIERAVEEKACNCLLLKVNQIGSVTEAIQACKLAQENGWGVMVSHRSGETEDTFIADLVVGLCTGQIKTGAPCRSERLAKYNQLMRIEEELGDEARFAGHNFRNPSVL
- biological half-life (in vivo): 48 hours

B2: β-thromboglobulin (protein, UniProt P02775 48-128, looked up)
Beta-thromboglobulin: GKEESLDSDLYAELRCMCIKTTSGIHPKNIQSLEVIGKGTHCNQVEVIATLKDGRKICLDPDAPRIKKIVQKKLAGDESAD
modifications: Beta-thromboglobulin
- biphasic half-life, first phase (plasma): 10 min
- extended half-life, second phase (plasma): 60 min
- biphasic half-life, first phase (serum): 10 min
- extended half-life, second phase (serum): 60 min
